Sequences and labels used below:
B1: CPEB3 Ribozyme (parent)
chain: GGGGGCCACAGCAGAAGCGUUCACGUCGCGGCCCCUGUCAGAUUCUGGUGAAUCUGCGAAUUCUGCUGU

The variants in this series derive from B1. Put plainly: self-cleavage, relative activity (ratio to wild type); higher = more cleavage; co-transcriptional.
Regarding GGUGGCCACAGCAGAAGCGUUCACGUCGCGGCCCCUGUCAGAUUCUGGUGAAUCUGCUAAUUCUGCUGU [G3U G58U], the self-cleavage is 0.189.
On to GGUGGCCACAGCAGAAGCGUUCACGUCGCGGCCCCUGUCAGAUUCUGGUGGAUCUGCGAAUUCUGCUGU [G3U A51G], for which the self-cleavage was 0.0734.
With GGUGGCCACAGCAGAAGCGUUCACGUCGCGCCCCCUGUCAGAUUCUGGUGAAUCUGCGAAUUCUGCUGU [G3U G31C], the self-cleavage worked out at 0.0621.
On to GGUGGCCACAGCAGAAGCGUUCACGUCGCGGCCCCUGUCAGAUUCAGGUGAAUCUGCGAAUUCUGCUGU [G3U U46A], for which the self-cleavage is 0.162.
Take GGUGGCCACAGCAGAAGCGUUCACGUCGCGGCCCCUGUCAGAUUCUGGUGAAUCAGCGAAUUCUGCUGU [G3U U55A]: the self-cleavage was 0.0915.
Regarding GGUGGCCACAGCAGAAGCGUUCACGUCGCGGCCCCUGUCAGAUUCUGGUGAAUCGGCGAAUUCUGCUGU [G3U U55G], the self-cleavage turned out to be 0.0975.
To GGUGGCCACAGCAGAAGCGUUCACGUCGCGGCCCUUGUCAGAUUCUGGUGAAUCUGCGAAUUCUGCUGU [G3U C35U] belongs 0.0525; to GGUGGCCACAGCAGAAGCGUUCACGUCGCGGCCCCUGUCAGAUUCUGGUGAAUCUGGGAAUUCUGCUGU [G3U C57G], 0.0443.
Take GGUGGCCACAGCAGAAGCGUUCACGUCGCGGCCCCUGUCAGAUUCUGGUGAAUCUGCGAAUUGUGCUGU [G3U C63G]: the self-cleavage worked out at 0.1.
Take GGUGGCCACAGCAGAAGCGUUCACGUCGCGGCCCCUGUCAGAUUCUGGUGAAUCUGCGAAUUAUGCUGU [G3U C63A]: the self-cleavage came out at 0.0888.
For the variant GGUGGCCACAGCAGAAGCGUUCACGUCGCGGCCCCUGUCAGAUUCUGUUGAAUCUGCGAAUUCUGCUGU [G3U G48U], the self-cleavage turned out to be 0.135.
Turning to GGUGGCCACAGCAGAAGCGUUCACGUCGCGGCCCCUGUCAGAUUCUGCUGAAUCUGCGAAUUCUGCUGU [G3U G48C], the self-cleavage amounted to 0.151.
To GGUGGCCACAGCAAAAGCGUUCACGUCGCGGCCCCUGUCAGAUUCUGGUGAAUCUGCGAAUUCUGCUGU [G3U G14A] belongs 0.0323.
Next, GGUGGCCACAGCAGAAGCGUUCACGUCGCGGCCCCUGACAGAUUCUGGUGAAUCUGCGAAUUCUGCUGU [G3U U38A]: 0.22; GGUGGCCACAGCAGAAGCGUUCACGUCGCGGCCCCUGUCAGAUUCUAGUGAAUCUGCGAAUUCUGCUGU [G3U G47A]: 0.192; GGUGGCCACAGCAGAAGCGUUCACGUCGCGGCCCCUGUCAGAUUCUGGUGAAUCUGCGAAUUCUGCCGU [G3U U67C]: 0.317.
For the variant GGUGGCCACAGCAGAAGCGUUCACGUCGCGGCCCCUGUCAGAUUCUGGUGAAUCUGCGAAUUCUGCGGU [G3U U67G], the self-cleavage amounted to 0.312.
Next, GGUGGCCACAGCAGAAGCGUUCACGUCGCGGCCCCUGUCAGAUUCUGGUGAAUCUGCGAAGUCUGCUGU [G3U U61G]: 0.114; GGCGGCCACAGCAGAAGCGUUCACGUCGCGGCCCCUGUCAGAUUCUGGUGAAUCUGCGAACUCUGCUGU [G3C U61C]: 0.0948.
Next, GGCGGCCACAGCAGAAGCGUUCACGUCGCGGCCCCUGUCAGAUUCUGGUGAAUCUGCGAAAUCUGCUGU [G3C U61A]: 0.0406; GGUGGCCACAGCAGAAGCGGUCACGUCGCGGCCCCUGUCAGAUUCUGGUGAAUCUGCGAAUUCUGCUGU [G3U U20G]: 0.0082; GGUGGCCACAGCAGAAGCGCUCACGUCGCGGCCCCUGUCAGAUUCUGGUGAAUCUGCGAAUUCUGCUGU [G3U U20C]: 0.0468.
In the case of GGUGGCCACAGCAGAAGCGUUCACGUCACGGCCCCUGUCAGAUUCUGGUGAAUCUGCGAAUUCUGCUGU [G3U G28A], the self-cleavage turned out to be 0.0444.
Regarding GGUGGCCACAGCAGAAGCGUUCACGUCGCGGCCCCUGUCAGAUUCUGGUGAAUCUGCGGAUUCUGCUGU [G3U A59G], the self-cleavage was determined as 0.0478.
To GGCGGCCACAGCAGAAGCGUUCACGUCGCGGCCCCUGUCAGAUUCUGGUGAAUCUGCGAAUUCGGCUGU [G3C U64G] belongs 0.0913; to GGUGGCGACAGCAGAAGCGUUCACGUCGCGGCCCCUGUCAGAUUCUGGUGAAUCUGCGAAUUCUGCUGU [G3U C7G], 0.0286; to GGUGGCCACAGCAGAAGCGUUCACGUCGCGGCCCCUGUCAGAUUCUGGUGAAUCUGCGAAUUCUGCUCU [G3U G68C], 0.548.
With GGUGGCCACAGCAGAAGCGUUCACGUCGCGGCCCCUGUCAGAUUCUGGUGAAUCUGCGAAUUCUGCUUU [G3U G68U], the self-cleavage came out at 0.546.
With GGUGGCCACAGCAGAAGCCUUCACGUCGCGGCCCCUGUCAGAUUCUGGUGAAUCUGCGAAUUCUGCUGU [G3U G19C], the self-cleavage was determined as 0.0665.
In the case of GGUGGACACAGCAGAAGCGUUCACGUCGCGGCCCCUGUCAGAUUCUGGUGAAUCUGCGAAUUCUGCUGU [G3U C6A], the self-cleavage came out at 0.0458.
Next, GGUGGCCACAGCAGAAGCGUUCACGUCGCGGCCCCUGUCAGAUUCUGGUGAAGCUGCGAAUUCUGCUGU [G3U U53G]: 0.0759.
Consider GGUGGCCACAACAGAAGCGUUCACGUCGCGGCCCCUGUCAGAUUCUGGUGAAUCUGCGAAUUCUGCUGU [G3U G11A], for which the self-cleavage came out at 0.125.
For GGUGGCCACAUCAGAAGCGUUCACGUCGCGGCCCCUGUCAGAUUCUGGUGAAUCUGCGAAUUCUGCUGU [G3U G11U], the self-cleavage turned out to be 0.0744.
For the variant GGUGUCCACAGCAGAAGCGUUCACGUCGCGGCCCCUGUCAGAUUCUGGUGAAUCUGCGAAUUCUGCUGU [G3U G5U], the self-cleavage came out at 0.0488.
Turning to GGUGGCCACAGCAGAAGCGUUCACGUAGCGGCCCCUGUCAGAUUCUGGUGAAUCUGCGAAUUCUGCUGU [G3U C27A], the self-cleavage was found to be 0.0666.
To GGUGGCCACAGCAGAAGCGUUCACGUCGCGGCCCCUGUCAGAUUCUGGUGAAUCUGCGAAUUCUGAUGU [G3U C66A] belongs 0.0783; to GGUGGCCACAGCAGAAGCGUUCACGUCGCGGCCCCUGUCAGAUUCUGGUGAAUCUGCGAAUCCUGCUGU [G3U U62C], 0.0865.
Take GGUGGCCAUAGCAGAAGCGUUCACGUCGCGGCCCCUGUCAGAUUCUGGUGAAUCUGCGAAUUCUGCUGU [G3U C9U]: the self-cleavage came to 0.521.
For GGUGGCCAAAGCAGAAGCGUUCACGUCGCGGCCCCUGUCAGAUUCUGGUGAAUCUGCGAAUUCUGCUGU [G3U C9A], the self-cleavage worked out at 0.655.

These data come from the RNAGym collection of RNA variant scans (doi:10.7554/elife.80360).
